Reference: patent US7238778B2, “Crystallized glucocorticoid receptor ligand binding domain polypeptide and screening methods employing same” (SmithKline Beecham Corporation, priority 2001, dated 2007)

Columns and labels:
[1] = target: T1, GST-GR LBD (F602S) 521–777 (Homo sapiens, UniProt P04150, F602S); assay: Surface plasmon resonance (Biacore) binding of GST-GR LBD to immobilized TIF2 LXXLL peptide
T1 construct: GR-LBD(521–777) F602S; made in house; host or cells: E. coli BL21(DE3); TIF2 peptide made by chemical synthesis
T1 sequence (P04150 521-777 F602S): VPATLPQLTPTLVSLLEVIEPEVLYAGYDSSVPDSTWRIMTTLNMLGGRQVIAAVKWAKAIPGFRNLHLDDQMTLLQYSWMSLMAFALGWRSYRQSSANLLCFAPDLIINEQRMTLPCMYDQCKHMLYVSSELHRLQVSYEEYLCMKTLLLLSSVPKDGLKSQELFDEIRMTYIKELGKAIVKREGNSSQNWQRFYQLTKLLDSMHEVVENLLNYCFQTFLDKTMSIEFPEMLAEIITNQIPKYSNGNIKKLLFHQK
Method: Each point is the average of two determinations.
FIG. 2B was generated using Biacore techniques. Biacore relies on changes in the refractive index at the surface layer upon binding of a ligand to a protein immobilized on the layer. In this system, a collection of small ligands is injected sequentially in a 2–5 microliter cell, wherein the protein is immobilized within the cell. Binding is detected by surface plasmon resonance (SPR) by recording laser light refracting from the surface. […] The purified protein is then used in the assay without further preparation. A synthetic peptide with an amino-terminal biotin is coupled to a sensor chip immobilized with streptavidin. The chip thus prepared is then exposed to the potential ligand via the delivery system incorporated in the instruments sold by Biacore (Uppsala, Sweden) to pipet the ligands in a sequential manner (autosampler). The SPR signal on the chip is recorded and changes in the refractive index indicate an interaction between the immobilized target and the ligand. Analysis of the signal kinetics of on rate and off rate allows the discrimination between non-specific and specific interaction.

[2] = target: T2, GST-GR LBD 521–777 (F602S) (Homo sapiens, UniProt P04150, F602S); assay: Stability of GR dexamethasone binding activity over time by fluorescence polarization; conditions: 25 uM peptide, 1 μM GST-GR LBD, 10 nM fluorescein dexamethasone (FIG. 2C)
T2 construct: GR-LBD(521–777) F602S; made in house; host or cells: E. coli BL21(DE3)
T2 sequence (P04150 521-777 F602S): T1 sequence (P04150 521-777 F602S)
Method: FIG. 2C is a graph depicting that TIF2 coactivator peptide enhances stability of GR dexamethasone binding activity. The effect of 25 uM coactivator peptide TIF2 732–756 (diamonds) or no peptide (squares) on the binding of GST-GR LBD (F602S) 521–777 to 10 nM fluorescein dexamethasone with time is determined by fluorescence polarization.

GR LBD (F602S) 521–777 = GR LBD (F602S) 521–777 (Homo sapiens, UniProt P04150, F602S); conditions: GST-GR fusion protein and cleaved GR LBD alone; 10 nM fluorescein dexamethasone, competed with 100 uM unlabeled dexamethasone (FIG. 2A)
Sequence of GR LBD (F602S) 521–777 (P04150 with tags, fused parts or gaps F602S): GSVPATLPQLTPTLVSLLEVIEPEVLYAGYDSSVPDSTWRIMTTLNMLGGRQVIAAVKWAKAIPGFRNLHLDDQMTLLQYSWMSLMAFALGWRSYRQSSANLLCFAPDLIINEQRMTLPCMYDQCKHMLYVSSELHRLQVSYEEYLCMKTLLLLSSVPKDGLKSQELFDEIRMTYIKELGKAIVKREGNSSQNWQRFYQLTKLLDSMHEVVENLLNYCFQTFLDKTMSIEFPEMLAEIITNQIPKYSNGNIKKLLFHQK
Method: FIG. 2A is a graph depicting the binding of 10 nM fluorescein dexamethasone to varied concentrations of GST-GR LBD (F602S) 521–777 (circles), GR LBD (F602S) 521–777 (triangles) and GR LBD (F602S) 521–777 in the presence of 100 uM unlabeled dexamethasone (squares) as measured by fluorescence polarization.
All experiments were conducted with buffer containing 10 mM HEPES pH 7.4, 0.15 M NaCl, 3 mM EDTA, 0.005% polysorbate-20 and 5 mM DTT. For activity determinations, 10 nM of fluorescein dexamethasone (Molecular Probes, Eugene, Ore.) was titrated with increasing concentrations of the glucocorticoid receptor in black 96-well plates (CoStar, Cambridge, Mass.). The fluorescence polarization values for each concentration of receptor were determined using a BMG PolarStar Galaxy fluorescence plate reader (BMG Labtechnologies GmbH, Offenburg, Germany) with 485 nm excitation and 520 nm emission filters. Binding isotherms were constructed and apparent EC50 values were determined by non-linear least squares fit of the data to an equation for a simple 1:1 interaction. […] For stability studies, the fluorescent polarization of 10 nM fluorescein dexamethasone with 1 μM GST-GR LBD 521–777 (F602S) is read at specific time intervals in the presence or absence of 25 uM of a peptide derived from the coactivator TIF2.

affinity of the TIF2 coactivator peptide for the GST-GR fusion protein ([1]; immobilized TIF2 732–756 peptide (FIG. 2B))	effect on the dexamethasone binding activity of the GST-GR fusion protein with time [2]	Substance	effect of ligand on binding of the GST-GR fusion protein to the TIF2 peptide ([1]; five-fold excess of compound over GST-GR LBD (F602S) (FIG. 2B))	binding of dexamethasone to GR (GR LBD (F602S) 521–777)
submicromolar	stabilizes	QEPVSPKKKENALLRYLLDKDDTKD [TIF2 peptide]	–	–
–	–	(11β, 16α)-9-fluoro-11β,17,21-trihydroxy-16α-methylpregna-1-4-diene-3,20-dione [dexamethasone]	enhanced	saturable and competable
